This data set is described as follows: soluble on expression in E. coli; label from the status in PepcDB or PDB records.
Take “MSLNALYNSLKQRLESGEWLAGQRMPSIRKLASTSEASYHDAVTAYARLVSEGLLSASPGRGYFVNSGASQAVSPREPECMSADPLFRLLQAGPQYTKLGGGWLPPAWRDTELLAKAIRRTARLEQSSLAEYGDISGYLPMRKQLCVHMKRLTRIDIRPSQVLSTLGATQGLDLVARLLIKAGDHVFVDEPGNGNLIRLIQLAGGHVVGVRRTQDGPDIAEMESYLAKHTVKAFFCNSTFHNPTGSNISPHNAFKVLRLAVEHEFFVVEDDVYGDFSPTVRQTFAELDNLDRVIYIGSFSKCLSASLRVGYIACSQELIEPLTRLKLLTCVAVPAFCERFVNTILADGTYARHMQDVQQRLISQQVQTQRSLLARGWKFDIAPQGGMFIWAYHPDITDLQPFMTKLEQHRILLMPGSAFSVTRDYQRFARINCTHFSEAVEAHFSV”: the “soluble on expression in E. coli” value is “not soluble”.
“MSLNAQTKSLHQLQQEFVDLRCGMFIHFNMPTFFNEDWPDPDAAPELFNPVRMDCKQWAKAAKSANMTYGCLTTKHHSGFCIWDTKTTDYSVMSSPFKRDVVKEYADAFRAEGMKVMLYYSILDTHARLRPKCITPQHIEMIKEQLRELLTNYGEITALIIDGWDAPWSRISYDDVPFEDIYRLVKSIQPNCLVMDLNAAKYPAEALFYTDIKSYEQGAGQHISKDTNRLPALSCLPLQQNWFWKESFPTTPVKSPAQMVNDNIIPMGKSYCNFILNVAPNRDGLMDANALKALKEIGKLWKNDGRVATVPEADAPIISSNIAKYQPAEGTWSSDYAIMDFANDDDFGTCWNSNPEVKVPWYSVTFEREKSFNMVVITDRNNDRLQEYRLEYRAGGTWKPLYEGKAPTGLRVKIHRFDTVWGDAVRMTVLNSNGTTSIAEFGVYCEREGHHHHHH”: the “soluble on expression in E. coli” value was “soluble”.
Under “MSLNDQYEALYQTFRWLVPTQFNIADACCHRWAASSPDARRIAIYYEDEAGNREVWTYARLAEAANQLANGLVKMGVERGDRVGVVLGQRPETVVAHMAIYSVGAVVLPLSPLFGPEALESRLRDADARVAIVDYASSANLLAISDNCPNLHQIIGIGFADERVLPWRSLLARQPNEFKMVATRASDPAILMYTSGTTGAPKGALLPHSVLIGNLPGFVASQDWFPRPGDVFWSPADWAWTGGMMDALLPTLYFGHPIVGTRGRFTPERAFELMERYQVTNTFLFPTALKMMMKSVPEPRGRYQLALRSIMSAGESVGETVFEWCEQALGITPNEMFGQTELNYVVGNSNRRWPARPGSMGRPYPGHRVAVIDEAGRPVKPGETGEVALNRFDIHGFPDPVLFLGYWRNEAATAAKFTDDWCRTGDLASIDADGYLWYAGRADDVFKSAGYRIGPGEIENCLLGHPAVANAAVVPKPDAERGALVKAYVVLTPEYQGRDPDSITQVLQEHVRDRLAPYEYPKEIEYVDALPMTTTGKIQRAVLRRREAERASGAHSEGHHHHHH” stands “not soluble”; under “MSLNEPDGVLSYQRPDEEAVVDQGGTSTILNIHYEKEELEGHRTLYVGVRMPLGRQSHRHHRTHGQKHRRRGGRGKGASQGEEGLEALAHDTPSQRVQFILGTEEDEEHVPHELFTELDEICMKEGEDAEWKETARWLKFEEDVEDGGERWSKPYVATLSLHSLFELRSCLINGSVLLDMRASSIEEISDLILDQQELLRDLSDSVRVKVREALLKKHHHQNERRRNNLIPIVRSFAEVGKKQSDPHSMDRDGQTVSPQSATNLEVKNGVNCEHSPVDLSKVDLHFMKKIPTGAEASNVLVGEVDTLDRPIVAFVRLSPAVLLSGLTEVPIPTRFLFILLGPVGKGQQYHEIGRSMATIMTDEIFHDVAYKAKERDDLLAGIDEFLDQVTVLPPGEWDPSIRIEPPKNVPSQEKRKMPGVPNGNVCHIEPEPHGGHSGEGHHHHHH”, “soluble”.
Take “MSLNEPLPDRQTELPAVKKENHGEYLQPRDLSKIPNTAFGDQVKRGYSLFVNSQQMRGKYVGNEQNCVNCHMEAGRKANAAPLWAAYMAYPAYRKKNDRVNSYADRIQGCFEYSMNGKAPAYDSPEIVALSAYAYWLAMGGLLDEGHHHHHH”: the “soluble on expression in E. coli” value was “soluble”.
Under “MSLNERAKIKIIPLGGINEIGKNITAIEYKEDIIIIDCGLKFPDDDMFGIDIVIPDVSYLIKNSEKIKGIFLTHGHEDHIGALPYVLRQLNVPVYGTKLTLGIVETKLKEHGLLASTELVRVKPKDIIKLDSVSVEFIKTNHSIADSVAIAVHTPLGVVLHTGDFKIDYTPIDGEMMDFGRLAELGRKGVLVLMADSTNVERPGYTMTEKVVGETFLRLFGKAKGRLIVATFASNVHRIQQIITAAEAYEKKVAVSGRSMENIVQVAIELGYLTVGKDVLVPVDQISKYPNEKIVVITTGSQGEPMSALARMAASEHRKINVIPGDTVIISATPIPGNEKFVSKVINQLFKKGAQVIYDSQEKIHVSGHACQEELKLMQALVKPKFFVPVHGEYRHLKKHGELAMEVGLSEKNLLIPENGDVIEVAREGHHHHHH” stands “soluble”; under “MSLNGFCARLRAITFNERLKMKIAVLLSGGVDSSYSAYSLKEQGHELVGIYLKLHASEKKHDLYIKNAQKACEFLGIPLEVLDFQKDFKSAVYDEFINAYEEGQTPNPCALCNPLMKFGLALDHALKLGCEKIATGHYARVKEIDKVSYIQEALDKTKDQSYFLYALEHEVIAKLVFPLGDLLKKDIKPLALNAMPFLGTLETYKESQEICFVEKSYIDTLKKHVEVEKEGVVKNLQGEVIGTHKGYMQYTIGKRKGFSVKGALEPHFVVGIDAKKNELIVGKKEDLATHSLKAKNKSLTKDFKDGEYFIKARYRSVPTKAFVSLKDGMIEVEFKEPFYGVAKGQALVVYKDDILLGGGVIVEGHHHHHH”, “soluble”; under “MSLNGQNTISDIGDATEDQIKDVIQIMNDNIDKFLERQERVSLLVDKTSQLNSSSNKFRRKAVNIKEIMWWQKVKNITLLTFTIILEGHHHHHH”, “not soluble”.
Turning to “MSLNHILETLIKLLKVGMEAIDRKGLIAILTSSIGNDEMDDSEQAVMVYNELIDKLQLNIPKDVDYRPNIYSYFGIQKKPNDTILVEMMISIFHIKRFDSELFVFKDKGWQKVNEDELQGLISKMIQVLLVDYKPSLSILKNVVVGLQNSIDVEELVENKQYIGCGHNMFNLDAFEVVGNSIKIFPATRLNLELVKSDVITEKTPPHFNRYMLEFANFDSDLQYFLFQHIAVLLTANTKYRRALLLYGGAKNGKSVFINLVRSFFYSEDIVSKALNELQGRFDKESLVGKKLMASDEIGESRIQEKIVNDLKKLVSVEPVHVDRKGKTQVETTLDLKLAFGTNARLNFPSAHAKALERRIAVIPCEYYVEKADPDLIEKLQDEKKEIFLYLMYVYKQIVKNDIEYLQNDRVTEISHDWLNFGYEFVSSKSASIANQKACINLLRKLIEIKPGSRIKVSELNKVINEEIKVSSQVIKQLIQANFDTQTKLYNGYDYWIDLGWKEADKKEIHDISKKDNIISLDKNENITDDETLDEENLDFDWEDFDDEGHHHHHH”, the “soluble on expression in E. coli” value is on record as “soluble”.
As for “MSLNIKRFVSWDCVNGIKGVLNENGKFSNNPMGVLNWIKAQTSEIPTILLVRDFHKFYDDPSISRTIKELSSSLRETNNNLILSSHILPSSEELDDLITILNLPLPDLSELTALIKKIAFNTDSDLSEQDLNELAIASSGLSEIKVKQVTAKALAQRGKISEGHHHHHH”, the “soluble on expression in E. coli” value is “not soluble”.
Turning to “MSLNILIIGPSWVGDMMMSHSLYQQLKIQYPNCNIDVMAPNWCKPLLARMPEVRKAIEMPLGHGAFELGTRYRLGKSLREQYDMAIVLPNSLKSAFIPFFAKIVHRRGWKGESRYILLNDLRANKKDYPMMVQRYVALAFEKDVIPKADDIPVLKPYLTVEPAQQAETLKKFEKQTALLGERPIIGFCPGAEFGPAKRWPHYHYAKLAEMLITQGYAVALFGSAKDEPVGEEIRQALPEELREFCVNLAGKTNLNEAVDLIANCTAVVTNDSGLMHIAAAVNRPLIALYGPTSPQYTPPLSDKATIIRLIEGELIKVRKGDKEGGYHQSLIDITPEMALEKLNELLAKEGGSHHHHHH”, the “soluble on expression in E. coli” value is “soluble”.
With “MSLNKSVIGTKQMVVSPHYLASQAGNRILDKGGNAFDAAVAVSACLAVVYPHMTGLGGDSFWLTFHQETKAVKVYNGSGRSGKNVTRDVYKGKSAIPLRGIDSAITVPGMVDSWDAVLKEYGRLSLADVLEPARDYAQNGFPVSADQCRHTEKNIELLASTPYTADIFTRRGKAPVPGERFVQKELADSLNLIAEKGRSAFYEGDLAQRIVSHLQNNGSYMTIDDFKAHRGEWAAPVSSDYRGYSVYQAPPNSQGFTGLLTLNILENYDFTQIEHGSFEYYHVLVEALKKSFLDRDAVLTDPAFADIPLERLLDKRYAKQLAEEIGYLAIPAESRPVGSDTAYAAVIDADGNAVSFIQSLYFEFGSAVTAGDTGILLQNRGSFFSLDENHVNTLEPRKRTFHTLMPAMVCKGGKPKILYGTQGGEGQPQTQTAIITRMLDYGMHPQQAISEPRWVWGRTWGEEYEGLRVEGRFTDKTIQKLKDSGHLVEVVGDYDPLMGQAAAIKVDEEGFLQGGADPRGDGAAVGEGHHHHHH”, the “soluble on expression in E. coli” value is “not soluble”.
Turning to “MSLNLKDLIERERNCQKKKAFNCSFLDYLDIVKENPEVCKFAHKRIYDLIIKQGFHIVDKNESIKKYNFFGEDFFGIDKTLMKIVNYFYAASMEGEESKQVLYLVGPVGSGKSSIVEAIKIALEDSEPIYALENCPMREEPLHLIPNNLRRKFEKELDLKIEGDLCPVCTYRLREEFNGEIEKFPVQKIGFSIKERRGVGVVPPVDPNNQDTSVLVGSVDISKMDIYSEHDPRIFSLNGAFNVGNRGIVEFIEIFKNDIEYLHSIITATQEKLIPSPGKGSMVYYDGVIIAHSNEGEWNKFKSDPTNEAILDRIVKIEVPYCLELDEEKKIYKKILKNSNFQVHIAPHTIDVAAMFAILTRLNSSEKVDLMTKLKIYNGEEIVEKASIKKIEREELEEECRQKEGMTGVSTRFIIKAINNAICESNCSCINPIDVINSLITAVKEKDLCEEVEDKYISFLEDVVRKEYNKILYKEITKFFIESFNSQGEALFNNYLDHAEAYVNKVYLKDNITGENLDPDEEFMREIEEEIGVTENSSKGFRKDVVAYILYLIRKGEEINCNCYKPLKEAIERKLISSSREISRIINPSKIRNKAQDEKYKFIVEKLKNNGYCDTCAFYTLRYAANNFWRDEGHHHHHH”, the “soluble on expression in E. coli” value is on record as “soluble”.
Turning to “MSLNNDRFAKQRVADDLDEPVEEAGNLARKLGLKPYPVNYWIVDYDEMNELIAYGGFQQRYPHWRWGMQYDRQQKQGQFLGGKAFEIVNNDDPAHAFLQESNTLADQKAVITHVEAHADFFANNEWFRMFTDGSSRTTTDESGEDRRRGPDAAGMLARHGDTIQEYMQDPDIERAEVERFIDHVLCLEDNIDQHIPYSPVETVPEEFEDIEGADVTEQLDDLELSEEVKRQVFDEEWLDAQRDDDENVTFPAEPDKDVLGFLRKHGMQYDADAERATEMEDWQIELLELLRREAYYFAPQKMTKVMNEGWASYWESLMMTGEQFAGDDEFILYSDHMSKVLGSGGLNPYSLGLEIWEYVENTENRREVIERLLRVKGITWRNFDDSVDYEMVQGRESHNDVTFLDEFLTQEFVDDNDYFTYEYTHASGDYRVTSTDHEDVKKKLMLQFTNFGKPTVVVEDGNYQNRNELLLAHQYNGVMLDIGQAKEVLKRTFELWGRPVNLLTIVKEFDDHDVEVAKREGHHHHHH”, the “soluble on expression in E. coli” value was “not soluble”.
For the sequence “MSLNNIMKVVIIGAGPAGVYSALTLSKHAKVTLIEREEKLGGTCVLYGCIPTKSILSQLIISRQASNMSLNTLREYALTSINTISKSLEHLLNSHGIEVIHANGFLRSSMVHASNTSLAADKVLVSTGTRRERLGKVKFTEDLAYTNEDYNKVVIVGGDAGGIELGWMMKKLGKEVHLIDKNDLLLQNIDRTLSEIVTNFLSQIGIKLYLGKKVSKIDETSVTLEDNQKISGDAVFVTFGRKPNIEGFEEIPHEKYIYVDEYLRTQIPNIYAAGDIIGTFTAHEAIYAGIIAAKNMLGEKREFIVEGIPKVIYIYPQIAYVGTTNGNCVTFNTLNLTRTIVERESEGFLKICERDNRVIGAVAFMPYAEDVISLISVLIRYQISLKDTIDLVMPHPSYLEAITEALNMLQSKGEGHHHHHH”, the “soluble on expression in E. coli” value was “not soluble”.

These data come from the DeepSol protein solubility set.
